Measured values reported in patent publication US20260168983A1, “YaxAB NANOPORE, NANOPORE SYSTEM COMPRISING SAME AND APPLICATIONS THEREOF” (KOREA RESEARCH INSTITUTE OF BIOSCIENCE AND BIOTECHNOLOGY, priority 2022, published 2026).

Target: Bcl-xL protein, Q07817
Experiment: YaxAB nanopore; Bcl-xL with a mix of four competing peptides at 1:15

Sequence of Bcl-xL protein, Q07817 (Q07817 1-209): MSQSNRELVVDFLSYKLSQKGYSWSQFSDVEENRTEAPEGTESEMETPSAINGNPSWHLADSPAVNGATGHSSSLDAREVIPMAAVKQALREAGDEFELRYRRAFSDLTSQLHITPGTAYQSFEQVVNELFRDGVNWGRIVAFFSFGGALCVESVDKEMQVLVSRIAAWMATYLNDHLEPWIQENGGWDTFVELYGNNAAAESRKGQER

Binder | signal frequency of the Bcl-xL-peptide complex [%]
GQVGRQLAIIGDDANR (modifications not checked) [Bak_BH3_I85A, Q16611 72-87] | 7
GQVGRQAAIIGDDINR (modifications not checked) [Bak_BH3_L78A, Q16611 72-87] | 3
